Patent publication US20230250135A1 (Janssen / Centocor, published 2023)

Columns and labels:
UFV161721 = UFV161721 (influenza A virus A/Hong Kong/1/68 …); experiment: Binding-AlphaLISA, Expi293F supernatant, normalized to UFV161333
UFV161715 = UFV161715 (influenza A virus A/Hong Kong/1/68 …); experiment: as above
UFV161333 = UFV161333 (influenza A virus A/Hong Kong/1/68 …)
UFV170051 = UFV170051 (influenza A virus A/Hong Kong/1/68 …); experiment: Binding-AlphaLISA, Expi293F supernatant, reference UFV170051
UFV171004 = UFV171004 (influenza A virus A/Hong Kong/1/68 …); experiment: ELISA on purified polypeptide

Binder	binding relative to reference UFV161333 (UFV161721)	binding relative to reference UFV161333 (UFV161715)	fold increase in binding relative to reference UFV161686 (UFV161333)	binding result (UFV170051)	EC50 (UFV171004)
SD15013 (VHH) VHH: EVQLVESGGGLVQAGDSLRISCAASGRTLSIYSMGWFRQAPGKEREFVATIGWNSGRTFYPDSLKGRFTISRDNARNTLYLQMNNLRPEDTAVYYCAAAKGPLRLSSQADYWGQGTQVTVSS	~60%	~60%	10 fold	–	–
CT149 (antibody, V domains shown) VH: QVQLVQSGAEVKKPGASVKVSCKTSGYSFSTYGVSWVRQAPGQGPEWVGWISAYTGITDYAQKFQGRVTLTTDATTATAFLDLRSLRPDDTATYFCARDKVQGRVEVGSGGRHDYWGQGTLVIVSS VL: EVVLTQSPGTLALPPGERATLSCRASHRVGSTYIAWYQQKSGQAPRRLIYGASNRATDIPDRFSGSGSGTDFTLTIRRLEPEDSAVYYCQQFSVSPWTFGQGTRVEIK	–	~90%	–	binds	< 0.01 nM
